Columns and labels:
Assay in all cases: direct ELISA
[1] = molecular target: T1, CD30 ligand (UniProt P32971 63-234)
T1 sequence (looked up): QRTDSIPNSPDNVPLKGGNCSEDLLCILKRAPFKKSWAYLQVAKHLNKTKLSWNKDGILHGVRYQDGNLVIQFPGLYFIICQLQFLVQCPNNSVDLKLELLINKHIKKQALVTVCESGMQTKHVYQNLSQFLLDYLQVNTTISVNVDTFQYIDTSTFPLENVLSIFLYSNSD

[2] = molecular target: T2, TWEAK (UniProt O43508 94-249, limits assumed)
T2 sequence (looked up): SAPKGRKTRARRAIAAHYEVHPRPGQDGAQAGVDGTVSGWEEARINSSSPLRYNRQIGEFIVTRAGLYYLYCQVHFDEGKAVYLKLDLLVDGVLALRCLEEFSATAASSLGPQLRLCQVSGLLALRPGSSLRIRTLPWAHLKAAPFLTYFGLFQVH

[3] = molecular target: T3, APRIL (UniProt O75888 105-250)
T3 sequence (looked up): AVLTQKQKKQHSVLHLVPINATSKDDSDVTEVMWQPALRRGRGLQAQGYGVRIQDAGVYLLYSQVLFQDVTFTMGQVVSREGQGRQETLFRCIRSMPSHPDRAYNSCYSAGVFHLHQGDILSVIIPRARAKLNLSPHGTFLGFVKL

[4] = molecular target: T4, EDA-A2 (UniProt Q92838-3 245-389, limits assumed)
T4 sequence (looked up): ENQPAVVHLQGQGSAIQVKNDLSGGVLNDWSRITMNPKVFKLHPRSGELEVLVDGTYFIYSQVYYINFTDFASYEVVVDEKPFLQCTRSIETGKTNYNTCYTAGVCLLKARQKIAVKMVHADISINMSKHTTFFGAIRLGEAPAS

[5] = molecular target: T5, GITR ligand (UniProt Q9UNG2 52-177)
T5 sequence (looked up): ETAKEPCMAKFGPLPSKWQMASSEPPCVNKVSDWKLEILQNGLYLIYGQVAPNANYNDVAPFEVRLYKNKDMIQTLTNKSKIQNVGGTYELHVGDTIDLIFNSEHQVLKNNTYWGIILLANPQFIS

[6] = molecular target: T6, RANK ligand (UniProt O14788 140-317)
T6 sequence (looked up): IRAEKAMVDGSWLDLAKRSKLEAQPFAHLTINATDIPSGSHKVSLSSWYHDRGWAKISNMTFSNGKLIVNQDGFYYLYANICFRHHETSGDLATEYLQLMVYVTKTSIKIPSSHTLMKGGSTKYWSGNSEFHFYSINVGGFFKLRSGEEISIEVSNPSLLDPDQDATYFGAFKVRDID

[7] = molecular target: T7, CD40 ligand (UniProt P29965 113-261, limits assumed)
T7 sequence (looked up): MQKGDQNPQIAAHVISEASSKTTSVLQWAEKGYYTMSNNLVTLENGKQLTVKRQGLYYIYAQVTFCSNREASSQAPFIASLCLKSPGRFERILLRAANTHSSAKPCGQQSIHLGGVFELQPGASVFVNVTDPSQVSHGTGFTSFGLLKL

[8] = molecular target: T8, lymphotoxin a (UniProt P01374 35-205)
T8 construct: also called lymphotoxin alpha
T8 sequence (looked up): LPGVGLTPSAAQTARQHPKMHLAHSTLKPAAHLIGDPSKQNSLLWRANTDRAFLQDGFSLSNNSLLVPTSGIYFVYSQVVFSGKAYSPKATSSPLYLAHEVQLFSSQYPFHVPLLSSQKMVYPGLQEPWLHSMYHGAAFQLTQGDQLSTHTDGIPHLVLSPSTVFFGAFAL

[9] = molecular target: T9, IL-17C (UniProt Q9P0M4 19-197)
T9 sequence (looked up): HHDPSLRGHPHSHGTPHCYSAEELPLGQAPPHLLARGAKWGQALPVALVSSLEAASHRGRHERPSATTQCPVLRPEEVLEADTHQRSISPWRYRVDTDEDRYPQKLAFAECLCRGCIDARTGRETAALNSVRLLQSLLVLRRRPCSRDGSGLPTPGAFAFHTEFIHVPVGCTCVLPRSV

[10] = molecular target: T10, IL-17B (UniProt Q9UHF5 21-180)
T10 sequence (looked up): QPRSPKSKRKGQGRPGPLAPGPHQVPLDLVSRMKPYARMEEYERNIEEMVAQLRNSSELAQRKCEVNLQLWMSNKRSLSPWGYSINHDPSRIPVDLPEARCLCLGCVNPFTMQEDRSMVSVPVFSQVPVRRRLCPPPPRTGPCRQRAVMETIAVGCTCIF

[11] = molecular target: T11, OX40 ligand (UniProt P23510 51-183)
T11 sequence (looked up): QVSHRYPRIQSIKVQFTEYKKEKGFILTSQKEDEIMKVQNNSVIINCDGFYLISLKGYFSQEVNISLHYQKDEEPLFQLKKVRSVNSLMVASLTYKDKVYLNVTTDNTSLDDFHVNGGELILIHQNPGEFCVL

[12] = molecular target: T12, IL-17D (UniProt Q8TAD2 16-202, limits assumed)
T12 sequence (looked up): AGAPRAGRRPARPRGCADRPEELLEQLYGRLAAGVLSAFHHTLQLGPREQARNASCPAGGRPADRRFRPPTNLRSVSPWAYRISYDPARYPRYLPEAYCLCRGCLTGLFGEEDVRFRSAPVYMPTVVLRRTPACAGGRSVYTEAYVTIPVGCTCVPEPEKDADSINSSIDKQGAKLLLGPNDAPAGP

[13] = molecular target: T13, IL-17E (IL-25) (UniProt Q9H293 33-177)
T13 sequence (looked up): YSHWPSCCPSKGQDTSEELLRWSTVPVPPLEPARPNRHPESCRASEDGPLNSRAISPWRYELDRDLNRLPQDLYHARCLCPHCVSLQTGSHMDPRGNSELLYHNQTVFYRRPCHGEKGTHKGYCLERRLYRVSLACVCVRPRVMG

[14] = molecular target: BAFF (UniProt Q9Y275 134-285)
BAFF, sequence (Q9Y275 134-285 limits assumed): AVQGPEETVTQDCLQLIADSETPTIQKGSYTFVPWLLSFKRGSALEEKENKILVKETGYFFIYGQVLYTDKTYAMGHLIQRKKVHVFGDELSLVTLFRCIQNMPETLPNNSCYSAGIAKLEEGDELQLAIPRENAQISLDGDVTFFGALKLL

[15] = molecular target: 4-1BB ligand (UniProt P41273 71-254, limits assumed)
4-1BB ligand, sequence (P41273 71-254 limits assumed): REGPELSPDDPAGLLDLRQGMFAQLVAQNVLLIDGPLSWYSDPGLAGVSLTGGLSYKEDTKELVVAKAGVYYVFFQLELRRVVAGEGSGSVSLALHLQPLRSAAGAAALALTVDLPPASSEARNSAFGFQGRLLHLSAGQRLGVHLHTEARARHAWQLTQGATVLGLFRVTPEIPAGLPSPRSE

[16] = molecular target: LIGHT (UniProt O43557 74-240, limits assumed)
LIGHT, sequence (O43557 74-240 limits assumed): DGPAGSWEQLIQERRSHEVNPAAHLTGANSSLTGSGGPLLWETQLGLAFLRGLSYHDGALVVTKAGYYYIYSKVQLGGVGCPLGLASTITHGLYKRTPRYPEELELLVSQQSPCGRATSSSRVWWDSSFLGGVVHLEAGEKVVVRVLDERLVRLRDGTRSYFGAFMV

Measured: binding result

B1: ABBV-257 anti-human TNF and IL-17 DVD-Ig binding protein (bispecific antibody, human IgG1, kappa, L234A L235A)
heavy: EVQLVQSGAEVKKPGASVKVSCKASGYTFANYGIIWVRQAPGQGLEWMGWINTYTGKPTYAQKFQGRVTMTTDTSTSTAYMELSSLRSEDTAVYYCARKLFTTMDVTDNAMDYWGQGTTVTVSSGGGGSGGGGSEVQLVQSGAEVKKPGSSVKVSCKASGYTFTDYEIHWVRQAPGQGLEWMGVNDPESGGTFYNQKFDGRVTLTADESTSTAYMELSSLRSEDTAVYYCTRYSKWDSFDGMDYWGQGTTVTVSSASTKGPSVFPLAPSSKSTSGGTAALGCLVKDYFPEPVTVSWNSGALTSGVHTFPAVLQSSGLYSLSSVVTVPSSSLGTQTYICNVNHKPSNTKVDKKVEPKSCDKTHTCPPCPAPEAAGGPSVFLFPPKPKDQLMISRTPEVTCVVVDVSHEDPEVKFNWYVDGVEVHNAKTKPREEQYNSTYRVVSVLTVLHQDWLNGKEYKCKVSNKALPAPIEKTISKAKGQPREPQVYTLPPSREEMTKNQVSLTCLVKGFYPSDIAVEWESNGQPENNYKTTPPVLDSDGSFFLYSKLTVDKSRWQQGNVFSCSVLHEALHNHYTQKSLSLSPGK
light: DIQMTQSPSSLSASVGDRVTITCRASQDISQYLNWYQQKPGKAPKLLIYYTSRLQSGVPSRFSGSGSGTDFTLTISSLQPEDFATYFCQQGNTWPPTFGQGTKLEIKRGGSGGGGSGDIQMTQSPSSLSASVGDRVTITCRASSGIISYIDWFQQKPGKAPKRLIYATFDLASGVPSRFSGSGSGTDYTLTISSLQPEDFATYYCRQVGSYPETFGQGTKLEIKRTVAAPSVFIFPPSDEQLKSGTASVVCLLNNFYPREAKVQWKVDNALQSGNSQESVTEQDSKDSTYSLSSTLTLSKADYEKHKVYACEVTHQGLSSPVTKSFNRGEC
modifications: N-linked glycans on the heavy chain at the asparagine commonly modified on IgG1 antibodies (fucosylated biantennary oligosaccharides with 0, 1 or 2 galactose residues)
notes: It says the constant region carries L234A, L235A and also T250Q and M428L; also called Anti-IL-17/TNF DVD-Ig Protein
no binding: [1] | [2] | [3] | [4] | [5] | [6] | [7] | [8] | [9] | [10] | [11] | [12] | [13] | [14] | [15] | [16]

From patent publication US20160002326A1 (AbbVie / Abbott, published 2016)
